Experimental findings from patent publication US20180155451A1 (published 2018) are described below.

Experiment [1] has as its target T1, FcγRIa extracellular domain with C-terminal His tag (human, UniProt P12314 16-292).
T1 construct: extracellular domain; Soluble receptor expressed in FreeStyle293 cells, used as analyte in Biacore; also called FcgRI; CD64; not shown: His tag at the C terminus
The experiment is described as follows: SPR (Biacore), antibody captured via antigen peptide, FcγR as analyte; binding relative to GpH7-A5/GpH7-B3/GpL16-k0 = 100.

The target of experiment [2] is T2, FcγRIIb extracellular domain with C-terminal His tag (human, UniProt P31994 43-217).
T2 construct: extracellular domain; Soluble receptor expressed in FreeStyle293 cells, used as analyte in Biacore; also called FcgRIIb; CD32B; not shown: His tag at the C terminus
T2 sequence (looked up): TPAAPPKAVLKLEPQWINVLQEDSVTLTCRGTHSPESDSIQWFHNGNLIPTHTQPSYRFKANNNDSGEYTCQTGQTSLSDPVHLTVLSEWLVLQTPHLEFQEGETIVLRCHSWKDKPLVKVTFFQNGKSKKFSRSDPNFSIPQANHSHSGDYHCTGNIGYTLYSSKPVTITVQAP
Described as above.

In experiment [3] the target is T3, FcγRIIIa extracellular domain with C-terminal His tag (human, UniProt P08637 17-208).
T3 construct: extracellular domain; also called FcgRIIIa; 3a; not shown: His tag at the C terminus
T3 sequence (P08637 17-208): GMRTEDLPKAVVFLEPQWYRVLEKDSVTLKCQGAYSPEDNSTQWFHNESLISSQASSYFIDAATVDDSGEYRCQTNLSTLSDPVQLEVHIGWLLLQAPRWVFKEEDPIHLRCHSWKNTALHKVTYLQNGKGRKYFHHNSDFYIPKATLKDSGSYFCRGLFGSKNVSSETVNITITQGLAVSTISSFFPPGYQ
The experiment is described as follows: SPR (Biacore), antibody captured on antigen peptide chip, FcγR as analyte; relative binding amount. The procedure: (§1) Analysis of interaction between objective antibody and the FcγR was carried out using Biacore T100 (GE Healthcare). HBS-EP+ (GE Healthcare) was used as the running buffer, and the measurement temperature was set to 25° C. Chips produced by immobilizing the antigen peptide by the amine coupling method to a Series S Sencor Chip CM5 (GE Healthcare), or alternatively, chips produced by allowing preliminarily biotinylated antigen peptides to interact with and immobilize onto a Series S Sensor Chip SA (certified) (GE Healthcare) were used. Antibodies of interest were captured onto an antigen peptide-immobilized chip, and allowed to interact to each FcγR diluted with running buffer. To regenerate and repeatedly use the chip, the antibodies captured on the chip were washed off by reacting 10 mM glycine-HCl, pH 1.5.
(§2) The FcγR-binding activity of each antibody was assessed primarily using as an indicator the FcγR-binding activity and dissociation constant for FcγR.

Experiment [4] addresses T4, FcγRIIb extracellular domain with C-terminal His tag (human, UniProt P31994 43-217).
T4 construct: extracellular domain; also called FcgRIIb; 2b; not shown: His tag at the C terminus
T4 sequence (looked up): T2 sequence (looked up)
The experiment is described as above. The procedure:
as §1, §2

Experiment [5] has as its target T5, FcγRIIa H (FcγRIIa type H, His at position 131), extracellular domain with C-terminal His tag (human, UniProt P12318 34-217).
T5 construct: extracellular domain; also called 2aH; FcgRIIa H; not shown: His tag at the C terminus
T5 sequence (looked up): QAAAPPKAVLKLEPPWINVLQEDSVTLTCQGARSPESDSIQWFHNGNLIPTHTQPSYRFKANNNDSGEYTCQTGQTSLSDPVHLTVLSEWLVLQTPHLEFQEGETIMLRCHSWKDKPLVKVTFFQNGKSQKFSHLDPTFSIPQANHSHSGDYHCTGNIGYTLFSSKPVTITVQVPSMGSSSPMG
The experiment is described as follows: SPR (Biacore), antibody captured on antigen-peptide chip, FcγR as analyte; GpH7-A5/GpH7-B3/GpL16-k0 = 100. As to the method: (§3) The heterodimerized antibodies He Abs in which one of the H chains was introduced with an alteration were assayed for their binding activities to each activating FcγR and inhibitory FcγR according to the method described in Example 4. […] The activating FcγRs in FIGS. 26, 27, 28, and 29 are FcγRIa, FcγRIIa (R), FcγRIIa (H), and FcγRIIIa, respectively.
as §1
Background: In SPR one partner is held on a chip, and binding of the other changes the refractive index at the surface.

The target of experiment [6] is T6, FcγRIIb, extracellular domain with C-terminal His tag (human, UniProt P31994 43-217).
T6 construct: extracellular domain; also called 2b; FcgRIIb; not shown: His tag at the C terminus
T6 sequence (looked up): T2 sequence (looked up)
The experiment is described as above. As to the method: as §3, §1

T1 sequence (P12314 16-292): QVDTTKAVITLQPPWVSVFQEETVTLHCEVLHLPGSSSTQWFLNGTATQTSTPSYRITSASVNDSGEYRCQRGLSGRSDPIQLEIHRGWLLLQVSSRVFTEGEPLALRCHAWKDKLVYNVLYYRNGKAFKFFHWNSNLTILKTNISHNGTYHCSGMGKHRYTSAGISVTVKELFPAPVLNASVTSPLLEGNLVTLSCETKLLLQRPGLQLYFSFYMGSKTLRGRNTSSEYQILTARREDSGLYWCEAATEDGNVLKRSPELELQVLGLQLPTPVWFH

B1: GpH7-A5/GpH7-B3 variant P271_13S/GpL16-k0 (antibody, human IgG1, kappa)
heavy 1: not shown
heavy 2: not shown
light: DIVMTQSPLSLPVTPGEPASISCQASESLVHSNRNTYLHWYLQKPGQSPQLLIYKVSNRFSGVPDRFSGSGSGTDFTLKISRVEAEDVGVYYCSQNTHVPPTFGQGTKVEIERTVAAPSVFIFPPSDEQLKSGTASVVCLLNNFYPREAKVQWKVDNALQSGNSQESVTEQDSKDSTYSLSSTLTLSKADYEKHKVYACEVTHQGLSSPVTKSFNRGEC
notes: Heterodimerized anti-glypican-3 IgG1; substitution in only one H chain; also called P271S; He Ab
B1: the He/Con_1a in experiment [1] is 102 % of control (GpH7-A5/GpH7-B3/GpL16-k0 = 100). In addition, in experiment [2], the He/Con_2b was 87.6 % of control (GpH7-A5/GpH7-B3/GpL16-k0 = 100).

B2: GpH7-A5/GpH7-B3 variant S267_14T/GpL16-k0 (antibody, human IgG1, kappa)
heavy 1: not shown
heavy 2: not shown
light: B1 light
notes: Heterodimerized anti-glypican-3 IgG1; the substitution stands in the GpH7-B3 chain only; also called He Ab
For the molecule B2, the He/Con_3a in experiment [3] is 45.6 % of GpH7-A5/GpH7-B3/GpL16-k0 (=100). In experiment [4], the He/Con_2b was 104 % of GpH7-A5/GpH7-B3/GpL16-k0 (=100).

B3: GpH7-A5/GpH7-B3 variant S298_08L/GpL16-k0 (antibody, human IgG1, kappa)
heavy 1: not shown
heavy 2: not shown
light: B1 light
notes: Heterodimerized IgG1 (He Ab); mutation only in the GpH7-B3 chain; also called He Ab S298L
Take B3: in experiment [5], the “He/Con_2aH (relative binding activity)” value is 85 % of control. In addition, in experiment [6], the “He/Con_2b (relative binding activity)” value is 108 % of control.

B4: GpH7-A5/GpH7-B3 variant S298_06M/GpL16-k0 (antibody, human IgG1, kappa)
heavy 1: not shown
heavy 2: not shown
light: B1 light
notes: as for B2
In the case of B4, in experiment [3], the He/Con_3a is 92.6 % of GpH7-A5/GpH7-B3/GpL16-k0 (=100). Besides, the He/Con_2b in experiment [4] was 102 % of GpH7-A5/GpH7-B3/GpL16-k0 (=100).

B5: GpH7-A5/GpH7-B3 variant K326_20W/GpL16-k0 (antibody, human IgG1, kappa)
heavy 1: not shown
heavy 2: not shown
light: B1 light
notes: as for B2
Turning to B5, the He/Con_3a in experiment [3] was 84.8 % of GpH7-A5/GpH7-B3/GpL16-k0 (=100). Further, the He/Con_2b in experiment [4] was 148 % of GpH7-A5/GpH7-B3/GpL16-k0 (=100).

B6: GpH7-A5/GpH7-B3 variant P271_08L/GpL16-k0 (antibody, human IgG1, kappa)
heavy 1: not shown
heavy 2: not shown
light: B1 light
notes: as for B2
Take B6: the He/Con_3a in experiment [3] was 71 % of GpH7-A5/GpH7-B3/GpL16-k0 (=100). The He/Con_2b in experiment [4] is 103 % of GpH7-A5/GpH7-B3/GpL16-k0 (=100).

B7: GpH7-A5/GpH7-B3 variant P271_10E/GpL16-k0 (antibody, human IgG1, kappa)
heavy 1: not shown
heavy 2: not shown
light: B1 light
notes: Heterodimerized IgG1 (He Ab); mutation only in the GpH7-B3 chain; also called He Ab P271E
For B7, in experiment [5], the “He/Con_2aH (relative binding activity)” value is 63.1 % of control. Moreover, the “He/Con_2b (relative binding activity)” value in experiment [6] is 109 % of control.

B8: GpH7-A5/GpH7-B3 variant Y300_10E/GpL16-k0 (antibody, human IgG1, kappa)
heavy 1: not shown
heavy 2: not shown
light: B1 light
notes: Heterodimerized IgG1 (He Ab); mutation only in the GpH7-B3 chain; also called He Ab Y300E
Regarding B8, the “He/Con_2aH (relative binding activity)” value in experiment [5] was 97.2 % of control. Further, in experiment [6], the “He/Con_2b (relative binding activity)” value is 134 % of control.

B9: GpH7-A5/GpH7-B3 variant S298_08L/GpL16-k0 (antibody, human IgG1, kappa)
heavy 1: not shown
heavy 2: not shown
light: B1 light
notes: as for B2
Turning to B9, the He/Con_3a in experiment [3] is 73.5 % of GpH7-A5/GpH7-B3/GpL16-k0 (=100). Moreover, in experiment [4], the He/Con_2b was 108 % of GpH7-A5/GpH7-B3/GpL16-k0 (=100).

B10: GpH7-A5/GpH7-B3 variant H268_01G/GpL16-k0 (antibody, human IgG1, kappa)
heavy 1: not shown
heavy 2: not shown
light: B1 light
notes: as for B2
In the case of B10, the He/Con_3a in experiment [3] was 96.7 % of GpH7-A5/GpH7-B3/GpL16-k0 (=100). In experiment [4], the He/Con_2b is 144 % of GpH7-A5/GpH7-B3/GpL16-k0 (=100).

B11: GpH7-A5/GpH7-B3 variant P271_10E/GpL16-k0 (antibody, human IgG1, kappa)
heavy 1: not shown
heavy 2: not shown
light: B1 light
notes: as for B2
For B11, the He/Con_3a in experiment [3] is 93.6 % of GpH7-A5/GpH7-B3/GpL16-k0 (=100). In addition, the He/Con_2b in experiment [4] was 109 % of GpH7-A5/GpH7-B3/GpL16-k0 (=100).

B12: GpH7-A5/GpH7-B3 variant A327_01G/GpL16-k0 (antibody, human IgG1, kappa)
heavy 1: not shown
heavy 2: not shown
light: B1 light
notes: as for B2
Consider B12, for which, in experiment [3], the He/Con_3a was 72.4 % of GpH7-A5/GpH7-B3/GpL16-k0 (=100). Moreover, in experiment [4], the He/Con_2b was 116 % of GpH7-A5/GpH7-B3/GpL16-k0 (=100).

B13: GpH7-A5/GpH7-B3 variant S267_19Q/GpL16-k0 (antibody, human IgG1, kappa)
heavy 1: not shown
heavy 2: not shown
light: B1 light
notes: Heterodimerized IgG1 (He Ab); mutation only in the GpH7-B3 chain; also called He Ab S267Q
Regarding B13, the “He/Con_2aH (relative binding activity)” value in experiment [5] is 61.3 % of control. For the same molecule, in experiment [6], the “He/Con_2b (relative binding activity)” value is 218 % of control.

B14: GpH7-A5/GpH7-B3 variant P271_12R/GpL16-k0 (antibody, human IgG1, kappa)
heavy 1: not shown
heavy 2: not shown
light: B1 light
notes: Heterodimerized anti-glypican-3 IgG1; substitution in only one H chain; also called P271R; He Ab
Turning to B14, the He/Con_1a in experiment [1] is 102 % of control (GpH7-A5/GpH7-B3/GpL16-k0 = 100). In addition, the He/Con_2b in experiment [2] is 86.5 % of control (GpH7-A5/GpH7-B3/GpL16-k0 = 100).

B15: GpH7-A5/GpH7-B3 variant P271_09D/GpL16-k0 (antibody, human IgG1, kappa)
heavy 1: not shown
heavy 2: not shown
light: B1 light
notes: as for B2
Regarding B15, the He/Con_3a in experiment [3] was 93.1 % of GpH7-A5/GpH7-B3/GpL16-k0 (=100). For the same molecule, in experiment [4], the He/Con_2b was 120 % of GpH7-A5/GpH7-B3/GpL16-k0 (=100).

B16: GpH7-A5/GpH7-B3 variant H268_03V/GpL16-k0 (antibody, human IgG1, kappa)
heavy 1: not shown
heavy 2: not shown
light: B1 light
notes: as for B2
For B16, the He/Con_3a in experiment [3] was 92.3 % of GpH7-A5/GpH7-B3/GpL16-k0 (=100). The He/Con_2b in experiment [4] is 114 % of GpH7-A5/GpH7-B3/GpL16-k0 (=100).
